Series [1] relates to ADA deficient mice. As to the kind of experiment: PEGADA enzyme therapy of ADA deficient mice: respiratory status and survival. Format: in vivo. The text has this:
The inventors contemplate that PEGADA treatments may be chronic or acute. In preferred chromic treatments a constant level of PEGADA is maintained in the mouse at concentrations of 150 to 300 U/Kg. In preferred acute treatments, a single dose of PEGADA (300 U/Kg) is given.
For chronic treatment of the mice of the present invention, litters are given an intramuscular injection of PEGADA at four days of postnatal file. The initial dose of PEGADA given is approximately 300 U/Kg body weight, where U (unit) is defined as 1 μmole adenosine converted to inosine per minute. this dose is within an order of magnitude of that given to treat ADA deficient humans. Mice were treated every four days with a dose of 150 to 300 U/Kg.
For acute treatment of the mice of the present invention, mice are injected intramuscularly once on postnatal day 18 with 300 U/kg PEGADA.
PEGADA, also known as ADAGEN, was obtained through collaboration with Enzon Inc. (Piscataway, N.J.). Control or ADA deficient mice were lightly anesthetized and injected intramuscularly with 10 microlitetrs of PEGADA corresponding to approximately 2.5 Units of ADA. […] Levels of ADA enzyme activity in tissues was measured using zymogram analysis according to established procedures (Blackburn et al., 1998). This procedure visualizes enzyme activity on non-denaturing agarose gels (Blackburn et al., 1998).
Polyethylene glycol modified ADA (PEGADA) enzyme therapy is a lifesaving strategy used to treat ADA deficient humans (Hershfield et al., 1993). […] The inventors treated ADA deficient mice with intramuscular injections of PEGADA (ENZON, Inc.; Piscataway, N.J.) in an attempt to modulate the respiratory distress seen. Mice were treated intramuscularly with 300 units of PEGADA. […] Even more striking was the observation that PEGADA could reverse the phenotype of an ADA deficient animal after its onset. ADA deficient animals were allowed to develop severe lung inflammation and damage (day 17), and were then treated with PEGADA.

Series [2] relates to ADA deficient mice. In words: Cellular differentials in bronchial alveolar lavage fluid (BALF) after PEGADA. The format is in vivo. On the procedure: FIG. 5A and FIG. 5B. Reversible lung eosinophilia and lung adenosine levels in ADA deficient mice treated with PEGADA. FIG. 5A, Total cellular differentials of cells collected from BALF of 18-day old control mice (n=19), ADA deficient mice (n=12) and ADA deficient mice treated with PEGADA and examined 72 hours later (n=5). Differentials were determined by counting 200 cells from BALF cytospins of each sample, and multiplying the percentage of each cell type found by the total number of cells in the BALF. Mean values are given as total cells (S.E.M.). FIG. 5B, Adenosine levels were quantitated in the lungs of 18-day old control mice (n=5), ADA deficient mice (n=4), and ADA deficient mice treated with PEGADA and examined 72 hours later (n=4). Mean values are given as nanomoles adenosine per mg protein±S.E.M.
Mice were anesthetized with avertin and the trachea exposed using blunt dissection. After securing a blunted 21-gauge needle into the trachea, the lungs were lavaged 5 times with 0.25 ml PBS. Lavages from individual animals were pooled and on average 0.95 to 1 ml of lavage fluid was recovered. Samples were centriflged at 2,500 rpm for 5 min to recover cells. Supernatant from these spins were collected and stored at −70 degrees C. for the analysis of cytokines. Cells were resuspended in 200 microliter PBS, an aliquot counted using a hemocytometer and another aliquot cytospun onto microscope slides where cells were stained with Diff-Quick (Dade) for cellular differentials. […] cells per sample were identified and counted under oil immersion.
PEGADA, also known as ADAGEN, was obtained through collaboration with Enzon Inc. (Piscataway, N.J.). […] Levels of ADA enzyme activity in tissues was measured using zymogram analysis according to established procedures (Blackburn et al., 1998). […]
(§1) Cell populations were monitored in BALF collected from ADA deficient mice 72 hours following treatment with PEGADA (FIG. 5A), in order to determine what effect PEGADA treatment had on lung inflammation. […]

For series [3], the system named is ADA deficient mice. As to the kind of experiment: ELISA of serum IgE and BALF cytokines after PEGADA. The format is in vivo. To be noted: PEGADA enzyme therapy. As for the experimental part: IFNg, IL-4 and IL-5 levels in BALF were determined using specific murine OptiEA ELISA kits from Pharmagen according to manufactures instructions. For the analysis of IgE levels, blood was collected from the heart of anesthetized mice and the serum separated by centrifugation of samples at 3,000 rpm for 10 min a 4 degrees C. A murine OptiEA ELISA kit from Pharmagen was utilized to quantitate serum IgE levels. Values were read and quantitated at linerarity using a MRX II plate reader equipped with Revelation software (Dynex Technologies).
PEGADA, also known as ADAGEN, was obtained through collaboration with Enzon Inc. (Piscataway, N.J.). Control or ADA deficient mice were lightly anesthetized and injected intramuscularly with 10 microlitetrs of PEGADA corresponding to approximately 2.5 Units of ADA. Injections were given either chronically every 4 days starting at postnatal day 4, or acutely, as one injection on postnatal day 18. Levels of ADA enzyme activity in tissues was measured using zymogram analysis according to established procedures (Blackburn et al., 1998). This procedure visualizes enzyme activity on non-denaturing agarose gels (Blackburn et al., 1998).
as §1

Series [4] relates to adenosine in the lungs of ADA deficient mice. As to the kind of experiment: Quantification of adenosine in lungs (reversed phase HPLC) after PEGADA. The format is in vivo. On the procedure:
FIG. 5A and FIG. 5B. Reversible lung eosinophilia and lung adenosine levels in ADA deficient mice treated with PEGADA. FIG. […] Differentials were determined by counting 200 cells from BALF cytospins of each sample, and multiplying the percentage of each cell type found by the total number of cells in the BALF. Mean values are given as total cells (S.E.M.). FIG. […] Mean values are given as nanomoles adenosine per mg protein±S.E.M.
PEGADA, also known as ADAGEN, was obtained through collaboration with Enzon Inc. (Piscataway, N.J.). Control or ADA deficient mice were lightly anesthetized and injected intramuscularly with 10 microlitetrs of PEGADA corresponding to approximately 2.5 Units of ADA. […] Levels of ADA enzyme activity in tissues was measured using zymogram analysis according to established procedures (Blackburn et al., 1998). […]
Mice were anesthetized with avertin, the thoracic cavity exposed, and the lungs were removed and frozen rapidly in liquid nitrogen to prevent metabolism of adenine nucleotides and nucleosides. Adenine nucleosides were extracted from frozen lungs using 0.4 N perchloric acid as described (Knudsen et al., 1992), and adenosine was separated and quantitated using reversed phase HPLC according to established procedures (Knudsen et al., 1992). […]

The next series relates to ADA deficient humans. To be noted: weekly intramuscular injection; cited from earlier work.
The mark [5] stands for this setting: weekly intramuscular injections of PEGADA from birth.
Setting [6] is: 72 hours following treatment with PEGADA.

B1: PEGADA: ADA polypeptides conjugated to polyethylene glycol; also known as ADAGEN, obtained from Enzon Inc. (protein, UniProt P56658 2-363, looked up)
Adenosine deaminase: AQTPAFNKPKVELHVHLDGAIKPETILYYGRKRGIALPADTPEELQNIIGMDKPLSLPEFLAKFDYYMPAIAGCREAVKRIAYEFVEMKAKDGVVYVEVRYSPHLLANSKVEPIPWNQAEGDLTPDEVVSLVNQGLQEGERDFGVKVRSILCCMRHQPSWSSEVVELCKKYREQTVVAIDLAGDETIEGSSLFPGHVKAYAEAVKSGVHRTVHAGEVGSANVVKEAVDTLKTERLGHGYHTLEDATLYNRLRQENMHFEVCPWSSYLTGAWKPDTEHPVVRFKNDQVNYSLNTDDPLIFKSTLDTDYQMTKNEMGFTEEEFKRLNINAAKSSFLPEDEKKELLDLLYKAYGMPSPASAEQCL
modifications: PEG conjugate (pegademase)
With B1, the “rescue of ADA deficient mice that without treatment die by three weeks of age” value in the series on ADA deficient mice [1] (chronic treatment, intramuscular, approx. 300 U/Kg at postnatal day 4, then every four days 150 to 300 U/Kg) is listed as “sufficient to rescue ADA deficient mice”. Also, the recovery and survival result with ADA deficient mice [1] (treated after onset of severe lung inflammation and damage (day 17)) was “recovered and survived as long as they were maintained on PEGADA”. The respiratory status result in the series with ADA deficient mice [1] (treated after onset of severe lung inflammation and damage (day 17), within 24 to 48 hours) is listed as “noticeably improved”. In the series on ADA deficient mice [1] (setting [5]), the “development of pulmonary problems” value is “never develop pulmonary problems” and the survival entry is “survive as long as the animals are maintained on PEGADA”. Besides, in the series on ADA deficient mice [1] (withdrawal of PEGADA therapy), the “outcome when PEGADA therapy was stopped” value is “rapidly showed signs of pulmonary insufficiency and died within a week”. In addition, in the series with ADA deficient mice [2] (setting [6]), the “alveolar macrophages in BALF” value is “remained elevated” and the “number of eosinophils in BALF” value is listed as “greatly reduced”. Moreover, the “number of eosinophils found in the BALs” value with ADA deficient mice [2] (treatment with PEGADA, as stated in Example 9) was “decrease in the number of eosinophils”. In the series on ADA deficient mice [3], the “levels of BALF cytokines” value is recorded as “no effect” and the “levels of serum IgE” value is given as “no effect”. Besides, the “accumulation of adenosine in the lung” value in series [4] was “prevents the accumulation of adenosine in the lung”. In addition, the “adenosine levels in ADA deficient lungs” value in series [4] (72 hrs following treatment with PEGADA, control < 0.2, untreated ADA deficient 6.3 nmoles/mg protein) is recorded as “lowered to near control levels”. The “accumulation of ADA substrates in ADA deficient humans” value in the series on ADA deficient humans is “prevents the accumulation of ADA substrates”.
